The values that follow are results of earlier work, collected in publication PMC3433420.

Where two headings read alike, the source gives them in different places.

Common to all, as to conditions: cited from earlier work
Series [1] concerns the target TNS3 (Homo sapiens) (UniProt Q68CZ2).
The target in series [2] is BCAR3 (Homo sapiens) (UniProt O75815).
The target of series [3] is SHC1 (Homo sapiens) (UniProt P29353).
Series [4] has as its target FGR (Homo sapiens) (UniProt P09769).
In series [5] the target is PIK3R2-N (Homo sapiens) (UniProt O00459).
Chain of PIK3R2-N (Homo sapiens) (O00459 325-721): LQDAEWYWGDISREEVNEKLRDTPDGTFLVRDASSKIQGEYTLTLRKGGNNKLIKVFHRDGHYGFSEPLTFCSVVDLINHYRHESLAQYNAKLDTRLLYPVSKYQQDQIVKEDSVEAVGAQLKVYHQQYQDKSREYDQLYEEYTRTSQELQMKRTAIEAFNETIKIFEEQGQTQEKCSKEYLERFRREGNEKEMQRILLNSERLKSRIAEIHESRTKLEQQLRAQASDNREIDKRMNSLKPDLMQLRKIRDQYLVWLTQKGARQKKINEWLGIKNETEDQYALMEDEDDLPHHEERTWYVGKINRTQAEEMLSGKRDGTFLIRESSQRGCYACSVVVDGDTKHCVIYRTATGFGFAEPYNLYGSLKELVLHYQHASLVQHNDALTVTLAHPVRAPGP
For series [6], the target named is PIK3R2-NC (Homo sapiens) (UniProt O00459).
Chain of PIK3R2-NC (Homo sapiens) (O00459 325-721): as above
For series [7], the target named is GRB10 (Homo sapiens) (UniProt Q13322).
Chain of GRB10 (Homo sapiens) (Q13322 488-579): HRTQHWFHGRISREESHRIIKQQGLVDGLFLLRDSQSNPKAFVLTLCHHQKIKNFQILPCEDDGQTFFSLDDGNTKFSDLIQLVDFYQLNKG
The target of series [8] is PLCG2-NC (Homo sapiens) (UniProt P16885).
Chain of PLCG2-NC (Homo sapiens) (P16885 527-740): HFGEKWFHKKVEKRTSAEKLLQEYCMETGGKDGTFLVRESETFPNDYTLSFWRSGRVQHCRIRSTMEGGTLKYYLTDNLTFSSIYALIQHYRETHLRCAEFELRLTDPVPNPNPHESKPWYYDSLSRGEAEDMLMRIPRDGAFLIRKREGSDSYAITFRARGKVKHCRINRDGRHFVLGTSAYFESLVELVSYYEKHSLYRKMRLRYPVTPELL
Series [9] has as its target SHF (Homo sapiens) (UniProt Q7M4L6).
The target of series [10] is RASA1-NC (Homo sapiens) (UniProt P20936).
Chain of RASA1-NC (Homo sapiens) (P20936 176-446): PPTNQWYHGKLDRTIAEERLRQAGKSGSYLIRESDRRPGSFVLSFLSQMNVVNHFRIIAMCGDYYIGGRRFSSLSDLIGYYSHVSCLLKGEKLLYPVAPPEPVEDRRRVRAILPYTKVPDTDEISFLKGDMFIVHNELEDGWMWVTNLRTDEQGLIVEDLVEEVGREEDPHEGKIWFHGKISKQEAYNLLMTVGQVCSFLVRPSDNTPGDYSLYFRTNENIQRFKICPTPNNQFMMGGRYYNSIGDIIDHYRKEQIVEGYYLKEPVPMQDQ
Series [11] addresses SHC1-PTB (Homo sapiens) (UniProt P29353).
In series [12] the target is CRKL (Homo sapiens) (UniProt P46109).
Chain of CRKL (Homo sapiens) (P46109 9-107): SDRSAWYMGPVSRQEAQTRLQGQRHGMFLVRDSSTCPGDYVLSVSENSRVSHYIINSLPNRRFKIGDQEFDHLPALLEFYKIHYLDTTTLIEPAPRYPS
Series [13] deals with PIK3R3-C (Homo sapiens) (UniProt Q92569).
Series [14] has as its target PLCG2-N (Homo sapiens) (UniProt P16885).
Series [15] deals with SOCS3 (Homo sapiens) (UniProt O14543).
Chain of SOCS3 (Homo sapiens) (O14543 41-147): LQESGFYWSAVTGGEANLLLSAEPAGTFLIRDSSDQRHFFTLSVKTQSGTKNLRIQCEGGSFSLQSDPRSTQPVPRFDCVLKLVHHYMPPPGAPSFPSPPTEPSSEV
Series [16] concerns the target SH2B3 (Homo sapiens) (UniProt Q9UQQ2).
The target in series [17] is SLA (Homo sapiens) (UniProt Q13239).
Chain of SLA (Homo sapiens) (Q13239 79-180): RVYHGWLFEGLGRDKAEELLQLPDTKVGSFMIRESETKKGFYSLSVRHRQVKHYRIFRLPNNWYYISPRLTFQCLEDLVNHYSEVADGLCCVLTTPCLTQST
The target of series [18] is HSH2D (Homo sapiens) (UniProt Q96JZ2).
Chain of HSH2D (Homo sapiens) (Q96JZ2 29-130): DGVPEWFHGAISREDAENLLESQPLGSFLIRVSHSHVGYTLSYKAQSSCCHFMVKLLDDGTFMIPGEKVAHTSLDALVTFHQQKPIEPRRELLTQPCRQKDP
Series [19] concerns the target GRB7 (Homo sapiens) (UniProt Q14451).
The target in series [20] is DAPP1 (Homo sapiens) (UniProt Q9UN19).
Chain of DAPP1 (Homo sapiens) (Q9UN19 30-134): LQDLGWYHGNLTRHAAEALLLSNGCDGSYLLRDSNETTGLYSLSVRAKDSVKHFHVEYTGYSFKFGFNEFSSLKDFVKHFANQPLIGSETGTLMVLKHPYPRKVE
Series [21] addresses SH2D3A (Homo sapiens) (UniProt Q9BRG2).
Series [22] deals with YES1 (Homo sapiens) (UniProt P07947).
Chain of YES1 (Homo sapiens) (P07947 153-260): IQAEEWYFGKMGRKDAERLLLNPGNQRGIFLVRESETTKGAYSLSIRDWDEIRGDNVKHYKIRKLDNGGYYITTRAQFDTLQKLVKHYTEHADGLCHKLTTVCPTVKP
Series [23] addresses BLK (Homo sapiens) (UniProt P51451).
Series [24] deals with ITK (Homo sapiens) (UniProt Q08881).
Chain of ITK (Homo sapiens) (Q08881 234-343): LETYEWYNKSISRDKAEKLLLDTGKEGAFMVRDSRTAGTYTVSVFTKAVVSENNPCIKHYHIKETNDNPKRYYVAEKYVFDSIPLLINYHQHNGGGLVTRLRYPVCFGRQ
Series [25] addresses SYK-C (Homo sapiens) (UniProt P43405).
The target of series [26] is VAV3 (Homo sapiens) (UniProt Q9UKW4).
Chain of VAV3 (Homo sapiens) (Q9UKW4 667-771): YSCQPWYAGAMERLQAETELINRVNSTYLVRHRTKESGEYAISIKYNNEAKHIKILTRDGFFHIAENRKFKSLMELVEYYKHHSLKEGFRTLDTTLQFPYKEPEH
The target in series [27] is TENC1 (Homo sapiens) (UniProt Q63HR2).
Chain of TENC1 (Homo sapiens) (Q63HR2 1135-1252): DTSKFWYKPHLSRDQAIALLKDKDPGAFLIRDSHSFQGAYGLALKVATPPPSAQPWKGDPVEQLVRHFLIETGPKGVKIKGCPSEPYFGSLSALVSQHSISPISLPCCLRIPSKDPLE
Series [28] has as its target PIK3R2-N (Homo sapiens) (UniProt O00459). The source holds these as a separate data set.
The target in series [29] is PIK3R3-C (Homo sapiens) (UniProt Q92569). The source holds these as a separate data set.
Series [30] has as its target NCK1 (Homo sapiens) (UniProt P16333).

Chain of BLK (Homo sapiens) (P51451 119-225): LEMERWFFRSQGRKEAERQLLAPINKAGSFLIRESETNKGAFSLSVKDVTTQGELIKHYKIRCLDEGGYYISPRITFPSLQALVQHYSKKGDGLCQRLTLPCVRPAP
Chain of SHF (Homo sapiens) (Q7M4L6 318-423): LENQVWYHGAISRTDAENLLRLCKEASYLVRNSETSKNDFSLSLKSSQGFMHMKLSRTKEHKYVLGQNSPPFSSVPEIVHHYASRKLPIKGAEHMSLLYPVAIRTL
Chain of TNS3 (Homo sapiens) (Q68CZ2 1167-1287): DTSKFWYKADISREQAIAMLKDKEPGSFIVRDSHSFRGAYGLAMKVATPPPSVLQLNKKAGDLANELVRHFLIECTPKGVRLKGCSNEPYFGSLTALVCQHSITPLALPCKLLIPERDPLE
Chain of GRB7 (Homo sapiens) (Q14451 426-532): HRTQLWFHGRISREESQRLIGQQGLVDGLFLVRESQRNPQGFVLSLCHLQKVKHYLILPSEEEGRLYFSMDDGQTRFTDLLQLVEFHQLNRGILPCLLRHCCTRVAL
Chain of PLCG2-N (Homo sapiens) (P16885 527-740): as the sequence (P16885 527-740) above
Chain of SH2B3 (Homo sapiens) (Q9UQQ2 359-467): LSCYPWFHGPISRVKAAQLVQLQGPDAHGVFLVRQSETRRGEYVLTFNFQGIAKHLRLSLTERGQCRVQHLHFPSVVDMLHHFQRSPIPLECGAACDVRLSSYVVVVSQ
Chain of BCAR3 (Homo sapiens) (O75815 149-258): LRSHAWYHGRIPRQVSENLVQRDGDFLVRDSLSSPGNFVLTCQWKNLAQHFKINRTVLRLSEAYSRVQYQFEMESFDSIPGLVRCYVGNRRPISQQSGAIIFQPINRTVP
Chain of SHC1 (Homo sapiens) (P29353 483-583): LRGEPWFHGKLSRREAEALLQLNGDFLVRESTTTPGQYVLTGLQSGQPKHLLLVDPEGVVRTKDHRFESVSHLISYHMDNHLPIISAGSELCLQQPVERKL
Chain of SHC1-PTB (Homo sapiens) (P29353 483-583): as above
Chain of SH2D3A (Homo sapiens) (Q9BRG2 10-119): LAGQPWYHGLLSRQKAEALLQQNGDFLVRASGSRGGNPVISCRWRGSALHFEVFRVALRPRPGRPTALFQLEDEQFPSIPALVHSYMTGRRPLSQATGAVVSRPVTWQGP

Regarding …pYEEMRAFQ, the apparent Kd (screen) was 639 nM in [1]; 2000 nM in series [2]; 999 nM in [3]; 1160 nM in [4]; 49 nM in [5].

With …pYWDQDPPE, the apparent Kd (screen) in series [6] was 2000 nM; in [7], 486 nM; in series [8], 263 nM; in series [9], 2000 nM; in series [10], 2000 nM; in series [11], 614 nM. Besides, the apparent Kd (screen) in series [12] was 1460 nM; in series [13], 2000 nM; in series [14], 2000 nM; in [15], 2000 nM; in series [16], 2000 nM; in series [17] it was 2000 nM. Besides, the apparent Kd (screen) in series [18] and in [19] was 2000 nM throughout.

As to …pYLVPQQGF, the apparent Kd (screen) in [20] is 2000 nM; in series [21], 2000 nM; in [22] it was 1170 nM; in [23] it was 2000 nM; in [24], 2000 nM.

Consider …pYLIPQQGFd, for which the apparent Kd (screen) was 934 nM in [25]; 2000 nM in [26]; 2000 nM in series [27]; 424 nM in series [28]; 193 nM in series [29]; 1000 nM in [30].
